Reference: the supplement of paper PMC10567573

B1: HSP90AB1 (parent)
chain: QVANSAFVERVRKRGFEVVYMTEP

Variants of: B1
Assay: protein stability index of a GFP-peptide fusion (GPS, HEK-293T) (PSI 1-6); higher = more stable
Settings: c terminus: a fixed tail appended
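Note: lentivirally expressed fusions sorted by FACS into six bins by GFP to DsRed ratio, PSI derived from sequencing read proportions per bin multiplied by bin number.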

Compared with QVANSAFVERVRKRGFEVVYATEP [M21A], QVANSAFVERVRKRGFEVVYFTEP [M21F] is lower in protein stability index: 2.11 for the first, 2.06 for the second.

First: QVANSAFVERVRKRGFEVVYPTEP [M21P]
Second: QVANSAFVERVRKRGFEVVYWTEP [M21W]
The protein stability index of the first is lower: 2.8 for the first, 3.09 for the second.

Going from QVANSAFVERVRKRGFEVVYYTEP [M21Y] to QVANSAFVERVRKRGFEVVYCTEP [M21C], the protein stability index rises from 2.04 to 2.41.

Compared with QVANSAFVERVRKRGFEVVYDTEP [M21D], QVANSAFVERVRKRGFEVVYTTEP [M21T] is higher in protein stability index: 2.96 for the first, 3.05 for the second.

Going from QVANSAFVERVRKRGFEVVYGTEP [M21G] to QVANSAFVDRVRKRGFEVVYMTEP [E9D], the protein stability index falls from 2.65 to 2.56.

Going from QVANSAFVNRVRKRGFEVVYMTEP [E9N] to QVANSAFVTRVRKRGFEVVYMTEP [E9T], the protein stability index falls from 1.9 to 1.76.

Compared with QVANSAFVQRVRKRGFEVVYMTEP [E9Q], QVANSAFVYRVRKRGFEVVYMTEP [E9Y] is higher in protein stability index: 1.72 for the first, 2.32 for the second.

Compared with QVANSAFVGRVRKRGFEVVYMTEP [E9G], QVANSAFVLRVRKRGFEVVYMTEP [E9L] is higher in protein stability index: 2.74 for the first, 3.24 for the second.

First: QVANSAFVERVRKRGFEVVYMVEP [T22V]
Second: QVANSAFVERVRKRGFEVVYMNEP [T22N]
The protein stability index of the first is lower: 1.63 for the first, 2.51 for the second.

Compared with QVANSAFVERVRKRGFEVVYMQEP [T22Q], QVANSAFVERVRKRGFEVVYMAEP [T22A] is higher in protein stability index: 2.54 for the first, 2.89 for the second.

First: QVANSAFVERVRKRGFHVVYMTEP [E17H]
Second: QVANSAFVERVRKRGFYVVYMTEP [E17Y]
The protein stability index of the first is lower: 1.76 for the first, 2.6 for the second.

Going from QVANSAFVERVRKRGFNVVYMTEP [E17N] to QVANSAFVERVRKRGFCVVYMTEP [E17C], the protein stability index rises from 2.32 to 2.44.

Compared with QVANSAFVERVRKRGFKVVYMTEP [E17K], QVANSAFVERVRKRGFDVVYMTEP [E17D] is lower in protein stability index: 2.02 for the first, 2 for the second.

Compared with QVANSAFVERVRKRGFGVVYMTEP [E17G], QVANSAFVERVRKRGFAVVYMTEP [E17A] is lower in protein stability index: 2.88 for the first, 1.26 for the second.

First: QVANSAFVERVRKRGFMVVYMTEP [E17M]
Second: QVANSAFVERVRKRGFTVVYMTEP [E17T]
The protein stability index of the first is higher: 2.15 for the first, 1.87 for the second.

First: QVANSAFVERVRKRGFVVVYMTEP [E17V]
Second: QVANSAFVERVRKRLFEVVYMTEP [G15L]
The protein stability index of the first is higher: 1.89 for the first, 1.83 for the second.

Compared with QVANSAFVERVRKREFEVVYMTEP [G15E], QVANSAFVERVRKRDFEVVYMTEP [G15D] is higher in protein stability index: 2.56 for the first, 3.3 for the second.

Going from QVANSAFVERVRKRAFEVVYMTEP [G15A] to QVANSAFVERVRKRPFEVVYMTEP [G15P], the protein stability index rises from 2.01 to 2.75.

First: QVANSAFVERVRKRTFEVVYMTEP [G15T]
Second: QVANSAFVERVRKRMFEVVYMTEP [G15M]
The protein stability index of the first is higher: 2.72 for the first, 2.07 for the second.

First: QVANSAFVERVRKRIFEVVYMTEP [G15I]
Second: QVANSAFVERVRKRYFEVVYMTEP [G15Y]
The protein stability index of the first is higher: 1.81 for the first, 1.61 for the second.

Compared with QVANSAFVERVRKRRFEVVYMTEP [G15R], QVANSAFVERVRKRKFEVVYMTEP [G15K] is higher in protein stability index: 1.98 for the first, 2.12 for the second.

First: QVANSAFQERVRKRGFEVVYMTEP [V8Q]
Second: QVANSAFLERVRKRGFEVVYMTEP [V8L]
The protein stability index of the first is higher: 2.2 for the first, 1.96 for the second.

First: QVANSAFFERVRKRGFEVVYMTEP [V8F]
Second: QVANSAFHERVRKRGFEVVYMTEP [V8H]
The protein stability index of the first is lower: 1.8 for the first, 2.47 for the second.

Going from QVANSAFMERVRKRGFEVVYMTEP [V8M] to QVANSAFGERVRKRGFEVVYMTEP [V8G], the protein stability index rises from 2.49 to 2.91.

First: QVANSAFRERVRKRGFEVVYMTEP [V8R]
Second: QVANSAFIERVRKRGFEVVYMTEP [V8I]
The protein stability index of the first is higher: 2.07 for the first, 1.88 for the second.

Going from QVANSAFTERVRKRGFEVVYMTEP [V8T] to QVANSAFPERVRKRGFEVVYMTEP [V8P], the protein stability index falls from 2.52 to 2.48.

Going from QVANSAFVERVRKRGFEVVYMTEM [P24M] to QVANSAFVERVRKRGFEVVYMTEK [P24K], the protein stability index rises from 2.14 to 2.44.

Compared with QVANSAFVERVRKRGFEVVYMTEG [P24G], QVANSAFVERVRKRGFEVVYMTET [P24T] is higher in protein stability index: 2.42 for the first, 2.48 for the second.

Going from QVANSAFVERVRKRGFEVVYMTEW [P24W] to QVANSAFVERVRKRGFEVVYMTEH [P24H], the protein stability index rises from 2.09 to 2.1.

First: QVANSAFVERVRKRGFEVVYMTER [P24R]
Second: QVANSYFVERVRKRGFEVVYMTEP [A6Y]
The protein stability index of the first is higher: 2 for the first, 1.55 for the second.

Going from QVANSVFVERVRKRGFEVVYMTEP [A6V] to QVANSTFVERVRKRGFEVVYMTEP [A6T], the protein stability index rises from 1.57 to 2.69.

First: QVANSHFVERVRKRGFEVVYMTEP [A6H]
Second: QVANSSFVERVRKRGFEVVYMTEP [A6S]
The protein stability index of the first is lower: 2.43 for the first, 2.61 for the second.

Compared with QVANSGFVERVRKRGFEVVYMTEP [A6G], QVANSMFVERVRKRGFEVVYMTEP [A6M] is higher in protein stability index: 2.19 for the first, 2.54 for the second.

Going from QVANSIFVERVRKRGFEVVYMTEP [A6I] to QVANSNFVERVRKRGFEVVYMTEP [A6N], the protein stability index rises from 1.68 to 2.11.

Compared with QVANSAFVERVHKRGFEVVYMTEP [R12H], QVANSAFVERVFKRGFEVVYMTEP [R12F] is lower in protein stability index: 2.53 for the first, 2.13 for the second.

Compared with QVANSAFVERVVKRGFEVVYMTEP [R12V], QVANSAFVERVMKRGFEVVYMTEP [R12M] is lower in protein stability index: 2.16 for the first, 2.01 for the second.

First: QVANSAFVERVKKRGFEVVYMTEP [R12K]
Second: QVANSAFVERVEKRGFEVVYMTEP [R12E]
The protein stability index of the first is lower: 3.12 for the first, 3.16 for the second.

Compared with QVANSAFVERVDKRGFEVVYMTEP [R12D], QVANSAVVERVRKRGFEVVYMTEP [F7V] is lower in protein stability index: 3.5 for the first, 2.84 for the second.

Compared with QVANSAMVERVRKRGFEVVYMTEP [F7M], QVANSAHVERVRKRGFEVVYMTEP [F7H] is higher in protein stability index: 2.35 for the first, 3.24 for the second.

Compared with QVANSASVERVRKRGFEVVYMTEP [F7S], QVANSAYVERVRKRGFEVVYMTEP [F7Y] is higher in protein stability index: 2.32 for the first, 2.38 for the second.

First: QVANSAKVERVRKRGFEVVYMTEP [F7K]
Second: QVANSAFVERYRKRGFEVVYMTEP [V11Y]
The protein stability index of the first is higher: 3.03 for the first, 2.17 for the second.

First: QVANSAFVERERKRGFEVVYMTEP [V11E]
Second: QVANSAFVERQRKRGFEVVYMTEP [V11Q]
The protein stability index of the first is higher: 3.58 for the first, 3.2 for the second.

Compared with QVANSAFVERIRKRGFEVVYMTEP [V11I], QVANSAFVERHRKRGFEVVYMTEP [V11H] is higher in protein stability index: 1.79 for the first, 2.73 for the second.

Compared with QVANSAFVERFRKRGFEVVYMTEP [V11F], QVANSAFVERVRKRGFEWVYMTEP [V18W] is lower in protein stability index: 2.09 for the first, 2.05 for the second.

Compared with QVANSAFVERVRKRGFEEVYMTEP [V18E], QVANSAFVERVRKRGFEDVYMTEP [V18D] is lower in protein stability index: 2.99 for the first, 2.88 for the second.

Compared with QVANSAFVERVRKRGFEAVYMTEP [V18A], QVANSAFVERVRKRGFEHVYMTEP [V18H] is lower in protein stability index: 2.96 for the first, 2.83 for the second.

Going from QVANSAFVERVRKRGFEQVYMTEP [V18Q] to QVANSAFVERVRKRGFEKVYMTEP [V18K], the protein stability index falls from 2.59 to 2.12.
